What was measured:
human FSHR [1] = assay: ^125I-FSH binding to wild type and mutant FSH receptors on intact stably transfected HEK 293 cells; conditions: for FSH binding / Kd compared with the wild type receptor, in words: intact HEK 293 cells
Method: (§1) Mutant FSHR cDNAs were prepared in the pSELECT vector using the Altered Sites Mutagenesis system (Promega), sequenced on a Beckman CEQ 2000XL capillary sequencer, subcloned into pcDNA3 (Invitrogen), and sequenced again to verify mutation sequences. […] Wild type and mutant receptor constructs were transfected into HEK 293 cells by the calcium phosphate method as previously described. Stable cell lines were established in minimum essential medium containing 10% horse serum and 500 μg/ml of G418. These cells were used for hormone binding, cAMP production. All assays were carried out in duplicate and repeated 4-5 times, and means±S.D. were calculated.
(§2) The Kd values were determined by Scatchard plots. For intracellular cAMP assay, cells were washed twice with Dulbecco's modified Eagle's medium and incubated in the medium containing 0.1 μg/ml isobutylmethylxanthine for 15 mm. Increasing concentrations of FSH were then added and incubation was continued for 45 mm at 37° C. After removing the medium, the cells were rinsed once with fresh medium without isobutylmethylxanthine, lysed in 70% ethanol, freeze-thawed in liquid nitrogen, and scraped.
Each mutant human FSHR cDNA was prepared in a pSELECT vector using the non-PCR based Altered Sites Mutagenesis System (Promega), sequenced on a Beckman CEQ 2000XL capillary sequencer and subcloned into pcDNA3 (Invitrogen) as described. After subcloning pcDNA3 the mutant cDNAs were sequenced again. Plasmids were transfected into human embryonic kidney (HEK) 293 cells by the calcium phosphate method. Stable cell lines were established in minimum essential medium containing 10% horse serum and 500 μg/ml of G-418, and then used for hormone binding and cAMP assay. All assays were carried out in duplicate and repeated 4-6 times. Means and standard variations were calculated.
(§3) Human FSH (the National Hormone and Pituitary Program) was radioiodinated as previously described for radioiodination of hCG. […] The Kd values were determined by Scatchard plots. Truncated exodomain was solubilized in Nonidet P-40 and assayed for hormone binding as described previously. For intracellular cAMP assay, cells were washed twice with Dulbecco's modified Eagle's media and incubated in the media containing isobutylmethylxanthine (0.1 mg/ml) for 15 minutes. Increasing concentrations of FSH were then added and the incubation was continued for 45 minutes at 37° C. After removing the media, the cells were rinsed once with fresh media without isobutylmethylxanthine, lysed in 70% ethanol, freeze-thawed in liquid nitrogen, and scraped. […] Exoloop 3 of FSHR was modeled based on the crystal structure of rhodopsin as a template.

FSHR = assay: ^125I-FSH binding to solubilized FSHR (NP-40); set-up: species or system human; conditions: solubilized mutant receptors
Method: Transfected cells were washed twice with ice cold 150 mM NaCl, 20 mM HEPES, pH 7.4 (buffer A). Cells were scraped on ice, collected in buffer A containing protease inhibitors (1 mM phenylmethylsulfonyl fluoride, 5 mM N-ethylmaleimide, and 10 mM EDTA), and pelleted by centrifugation at 1300×g for 10 minutes. Cells were resuspended in 0.6 ml of buffer A containing 1% NP-40, 20% glycerol, and the above protease inhibitors (buffer B), incubated on ice for 15 mm, and diluted with 5.4 ml of buffer A containing 20% glycerol plus the protease inhibitors (buffer C). The mixture was centrifuged at 100,000×g for 60 minutes. […] After incubation for 12 hours at 4° C., the solution was thoroughly mixed with 250 μl of buffer A containing bovine γ-globulin (5 μg/ml) and 750 μl of buffer A containing 20% polyethylene glycol 8000. After incubation for 10 minutes at 4° C., samples were pelleted at 1300×g for 30 mm and supernatants removed. Pellets were resuspended in 1.5 ml of buffer A containing 20% polyethylene glycol 8000, centrifuged, and counted for radioactivity.

human FSHR [2] = assay: Inositol phosphate assay, FSHR exoloop 3 mutants in HEK 293 cells, FSH stimulated; assay type: cell-based; conditions: for IPt (CPM): total IP production in response to increasing concentrations of FSH, NS = not significant
Method: Stable cells were plated in 12 well plates and grown in inositol free DMEM (Atlanta Biologicals) supplemented with 8% heat-inactivated horse serum and 2 μCi/ml ^3H-inositol (N EN) for 48 h to 40-50% confluency. After removing the medium, the cells were incubated in 1 ml of fresh wash buffer consisting of DMEM without inositol and 15 mM HEPES (pH 7.3) for 1 hour at 37° C. This medium was removed and 0.3 ml wash buffer containing 20 mM LiCl was added and incubated for 15 minutes at 37° C. After the cells were stimulated with increasing concentrations of hormone for 30 minutes at 37° C., the incubation was terminated by the removal of medium and the addition of 0.25 ml of 0.6 N HCl to each well. The cells were scraped and transferred into microcentrifuge tubes, and the wells were again washed with 0.25 ml of 0.6 N HCl. The combined washes were treated with 0.9 ml of a mixture of chloroform:methanol (2:1), vortexed and centrifuged at 1000×g for 5 minutes at room temperature. The top aqueous layer, which was free of phospholipids, was removed and the remaining chloroform layer treated with 0.2 ml of methanol:water (1:1), vortexed and centrifuged. This aqueous layer was added to the previous aqueous layer and the samples dried in a vacuum concentrator. The dried samples were redissolved in 0.5 ml of 50 mM Tris-HCl, pH 8 and applied to Dowex AG 1-X8 formate (BIO-RAD) columns. The microcentrifuge tubes were washed twice with 0.5 ml of the same buffer and the washes applied to the columns for a total of 1.5 ml. The columns were sequentially washed with 4.5 ml H2O and 4.5 ml 60 mM ammonium formate and 5 mM sodium tetraborate to elute the free inositol and the glycerol phosphoinositol. IP1, IP2 and IP3 were sequentially eluted with 4 ml of 0.1 N formic acid in 0.2 M, 0.75 M ammonium formate and 1.1 M ammonium formate, respectively and collected in 1 ml fractions. Aliquots of 200 μl were counted for radioactivity in 1.5 ml of Ultima AF scintillation fluid (Packard). Peak radioactivities were used for the data analysis.

human FSHR [3] = assay: FSH dependent intracellular cAMP assay, wild type and mutant FSHR in HEK 293 cells; assay type: cell-based; conditions: HEK 293 cells
Method: as §1, §2, §3

Row | Molecule | FSH binding / Kd compared with the wild type receptor, in words (human FSHR [1]) | FSH binding to receptors solubilized in NP-40 (FSHR) | Kd (human FSHR [1]; ^125I-FSH binding, Scatchard plots, HEK 293 cells) [nM] | IPt (CPM) (human FSHR [2]) | FSH dependent cAMP induction / EC50 compared with the wild type receptor, in words (human FSHR [3]) | IP induction (IP1, IP2, IP3, IPt) in response to FSH, in words (human FSHR [2]; HEK 293 cells)
1 | L^27A: human FSHR with Ala substituted for L27 (protein) CHHRICHCSNRVFLCQESKVTEIPSDAPRNAIELRFVLTKLRVIQKGAFSGFGDLEKIEISQNDVLEVIEADVFSNLPKLHEIRIEKANNLLYINPEAFQNLPNLQYLLISNTGIKHLPDVHKIHSLQKVLLDIQDNINIHTIERNSFVGLSFESVILWLNKNGIQEIHNCAFNGTQLDELNLSDNNNLEELPNDVFHGASGPVILDISRTRIHSLPSYGLENLKKLRARSTYNLKKLPTLEKLVALMEASLTYPSHCCAFANWRRQISELHPICNKSILRQEVDYMTQARGQRSSLAEDNESSYSRGFDMTYTEFDYDLCNEVVDVTCSPKPDAFNPCEDIMGYNILRVLIWFISILAITGNIIVLVILTTSQYKLTVPRFLMCNLAFADLCIGIYLLLIASVDIHTKSQYHNYAIDWQTGAGCDAAGFFTVFASELSVYTLTAITLERWHTITHAMQLDCKVQLRHAASVMVMGWIFAFAAALFPIFGISSYMKVSICLPMDIDSPLSQLYVMSLLVLNVLAFVVICGCYIHIYLTVRNPNIVSSSSDTRIAKRMAMLIFTDFLCMAPISFFAISASLKVPLITVSKAKILLVLFHPINSCANPFLYAIFTKNFRRDFFILLSKCGCYEMQAQIYRTETSSTVHNTHPRNGHCSSAPRVTSGSTYILVPLSHLAQN | completely abrogated hormone binding | did not bind |  |  |  | 
2 | wild type: wild type human FSH receptor expressed in HEK 293 cells (protein) CHHRICHCSNRVFLCQESKVTEIPSDLPRNAIELRFVLTKLRVIQKGAFSGFGDLEKIEISQNDVLEVIEADVFSNLPKLHEIRIEKANNLLYINPEAFQNLPNLQYLLISNTGIKHLPDVHKIHSLQKVLLDIQDNINIHTIERNSFVGLSFESVILWLNKNGIQEIHNCAFNGTQLDELNLSDNNNLEELPNDVFHGASGPVILDISRTRIHSLPSYGLENLKKLRARSTYNLKKLPTLEKLVALMEASLTYPSHCCAFANWRRQISELHPICNKSILRQEVDYMTQARGQRSSLAEDNESSYSRGFDMTYTEFDYDLCNEVVDVTCSPKPDAFNPCEDIMGYNILRVLIWFISILAITGNIIVLVILTTSQYKLTVPRFLMCNLAFADLCIGIYLLLIASVDIHTKSQYHNYAIDWQTGAGCDAAGFFTVFASELSVYTLTAITLERWHTITHAMQLDCKVQLRHAASVMVMGWIFAFAAALFPIFGISSYMKVSICLPMDIDSPLSQLYVMSLLVLNVLAFVVICGCYIHIYLTVRNPNIVSSSSDTRIAKRMAMLIFTDFLCMAPISFFAISASLKVPLITVSKAKILLVLFHPINSCANPFLYAIFTKNFRRDFFILLSKCGCYEMQAQIYRTETSSTVHNTHPRNGHCSSAPRVTSGSTYILVPLSHLAQN |  |  | 4 | 1,660 ± 240 CPM |  | 
3 | L^583 Y: human FSHR mutant, Tyr for L583 (protein) CHHRICHCSNRVFLCQESKVTEIPSDLPRNAIELRFVLTKLRVIQKGAFSGFGDLEKIEISQNDVLEVIEADVFSNLPKLHEIRIEKANNLLYINPEAFQNLPNLQYLLISNTGIKHLPDVHKIHSLQKVLLDIQDNINIHTIERNSFVGLSFESVILWLNKNGIQEIHNCAFNGTQLDELNLSDNNNLEELPNDVFHGASGPVILDISRTRIHSLPSYGLENLKKLRARSTYNLKKLPTLEKLVALMEASLTYPSHCCAFANWRRQISELHPICNKSILRQEVDYMTQARGQRSSLAEDNESSYSRGFDMTYTEFDYDLCNEVVDVTCSPKPDAFNPCEDIMGYNILRVLIWFISILAITGNIIVLVILTTSQYKLTVPRFLMCNLAFADLCIGIYLLLIASVDIHTKSQYHNYAIDWQTGAGCDAAGFFTVFASELSVYTLTAITLERWHTITHAMQLDCKVQLRHAASVMVMGWIFAFAAALFPIFGISSYMKVSICLPMDIDSPLSQLYVMSLLVLNVLAFVVICGCYIHIYLTVRNPNIVSSSSDTRIAKRMAMLIFTDFLCMAPISFFAISASLKVPYITVSKAKILLVLFHPINSCANPFLYAIFTKNFRRDFFILLSKCGCYEMQAQIYRTETSSTVHNTHPRNGHCSSAPRVTSGSTYILVPLSHLAQN |  |  |  | 440 ± 17 CPM | induced significant amounts of cAMP with reasonable EC50 values | produced a small amount of IPt
4 | C^15A: human FSHR with Ala substituted for C15 (protein) CHHRICHCSNRVFLAQESKVTEIPSDLPRNAIELRFVLTKLRVIQKGAFSGFGDLEKIEISQNDVLEVIEADVFSNLPKLHEIRIEKANNLLYINPEAFQNLPNLQYLLISNTGIKHLPDVHKIHSLQKVLLDIQDNINIHTIERNSFVGLSFESVILWLNKNGIQEIHNCAFNGTQLDELNLSDNNNLEELPNDVFHGASGPVILDISRTRIHSLPSYGLENLKKLRARSTYNLKKLPTLEKLVALMEASLTYPSHCCAFANWRRQISELHPICNKSILRQEVDYMTQARGQRSSLAEDNESSYSRGFDMTYTEFDYDLCNEVVDVTCSPKPDAFNPCEDIMGYNILRVLIWFISILAITGNIIVLVILTTSQYKLTVPRFLMCNLAFADLCIGIYLLLIASVDIHTKSQYHNYAIDWQTGAGCDAAGFFTVFASELSVYTLTAITLERWHTITHAMQLDCKVQLRHAASVMVMGWIFAFAAALFPIFGISSYMKVSICLPMDIDSPLSQLYVMSLLVLNVLAFVVICGCYIHIYLTVRNPNIVSSSSDTRIAKRMAMLIFTDFLCMAPISFFAISASLKVPLITVSKAKILLVLFHPINSCANPFLYAIFTKNFRRDFFILLSKCGCYEMQAQIYRTETSSTVHNTHPRNGHCSSAPRVTSGSTYILVPLSHLAQN | abolished hormone binding | did not bind |  |  |  | 

— patent US20050142135A1, “Agents and methods for modulating interactions between gonadotropin hormones and receptors” (University of Kentucky Research Foundation, priority 2003, published 2005)
